Test results: patent US20120171195A1
Values belong to the substance of their own block, whether it stands above or below them.

Tests used:
HLA-B*1513 (human) = assay: Luminex beads; MAb 1/1600; competitor rHLA-E
HLA-B*4002 (human) [1] = molecular target: HLA-B*4002 (human) (UniProt P01889); assay: Luminex beads; MAb 1/1600; competitor rHLA-E
HLA-B*5101 (human) [2] = assay: Luminex beads; MAb 1/1600; competitor rHLA-E
HLA-Cw*1402 (human) [3] = molecular target: HLA-Cw*1402 (human) (UniProt P10321); assay: Luminex beads; MAb 1/1600; competitor rHLA-E
HLA-Cw*1802 (human) [4] = molecular target: HLA-Cw*1802 (human) (UniProt P10321); assay: Luminex beads; MAb 1/1600; competitor rHLA-E
HLA-B*0801 (human) = HLA-B*0801 (human) (UniProt P01889); assay: Luminex beads; MAb 1/800; competitor IgG-free serum
HLA-B*1402 (human) = assay: as above
HLA-B*1801 (human) = assay: as above
HLA-B*2708 (human) = HLA-B*2708 (human) (UniProt P01889); assay: as above
HLA-B*3701 (human) = assay: as above
HLA-B*4002 (human) [5] = molecular target: HLA-B*4002 (human) (UniProt P01889); assay: as above
HLA-B*5101 (human) [6] = assay: as above
HLA-B*5201 (human) = assay: as above
HLA-B*5801 (human) = assay: as above
HLA-Cw*1402 (human) [7] = molecular target: HLA-Cw*1402 (human) (UniProt P10321); assay: as above
HLA-Cw*1701 (human) = assay: as above
HLA-Cw*1802 (human) [8] = molecular target: HLA-Cw*1802 (human) (UniProt P10321); assay: as above
HLA-A*2403 (A24) (human) = assay: Luminex single-antigen beads; MEM-E/02 1/600; serum Mi127 1/100
HLA-A*2501 (A25) (human) = assay: as above
HLA-A*2901 (A29) (human) = HLA-A*2901 (A29) (human) (UniProt P04439); assay: as above
HLA-A*3002 (A30) (human) = HLA-A*3002 (A30) (human) (UniProt P04439); assay: as above
HLA-A*3201 (A32) (human) = assay: as above
HLA-A*3301 (A33) (human) = assay: as above
HLA-B*0801 (B8) (human) = HLA-B*0801 (B8) (human) (UniProt P01889); assay: as above
HLA-B*1301 (B13) (human) = assay: as above
HLA-B*1513 (B77) (human) = assay: as above
HLA-B*1516 (B63) (human) = assay: as above
HLA-B*2708 (B27) (human) = HLA-B*2708 (B27) (human) (UniProt P01889); assay: as above
HLA-B*3901 (B39) (human) = HLA-B*3901 (B39) (human) (UniProt P01889); assay: as above
HLA-B*4801 (B48) (human) = HLA-B*4801 (B48) (human) (UniProt P01889); assay: as above
HLA-B*5102 (B51) (human) = assay: as above
HLA-B*5703 (B57) (human) = assay: as above
HLA-B*5901 (B59) (human) = assay: as above
HLA-Cw*0304 (human) = assay: as above
[9] = molecular target: HLA-Cw*0401 (Cw4) (human); assay: as above
[10] = molecular target: HLA-Cw*0801 (Cw8) (human) (UniProt P10321); assay: as above
[11] = molecular target: HLA-Cw*1203 (Cw12) (human) (UniProt P10321); assay: as above
[12] = molecular target: HLA-Cw*1502 (Cw15) (human); assay: as above
[13] = molecular target: HLA-Cw*1701 (Cw17) (human); assay: as above
[14] = molecular target: HLA-Cw*1802 (Cw18) (human) (UniProt P10321); assay: as above

MFI (HLA-B*1513 (human)): 246 MFI | MFI (HLA-B*4002 (human) [1]): 196 MFI | MFI (HLA-B*5101 (human) [2]): 99 MFI | MFI (HLA-Cw*1402 (human) [3]): 48 MFI | MFI (HLA-Cw*1802 (human) [4]): 30 MFI | MFI (HLA-B*0801 (human)): 262 MFI | MFI (HLA-B*1402 (human)): 517 MFI | MFI (HLA-B*1801 (human)): 777 MFI | MFI (HLA-B*2708 (human)): 417 MFI | MFI (HLA-B*3701 (human)): 784 MFI | MFI (HLA-B*4002 (human) [5]): 655 MFI | MFI (HLA-B*5101 (human) [6]): 483 MFI | MFI (HLA-B*5201 (human)): 609 MFI | MFI (HLA-B*5801 (human)): 938 MFI | MFI (HLA-Cw*1402 (human) [7]): 803 MFI | MFI (HLA-Cw*1701 (human)): 676 MFI | MFI (HLA-Cw*1802 (human) [8]): 3810 MFI
Substance: murine monoclonal antibody (MAb) MEM-E/02

% inhibition (HLA-A*2403 (A24) (human)): 36% | % inhibition (HLA-A*2501 (A25) (human)): 36% | MFI (HLA-A*2901 (A29) (human)): < 500 MFI | MFI (HLA-A*3002 (A30) (human)): < 500 MFI | MFI (HLA-A*3201 (A32) (human)): < 500 MFI | MFI (HLA-A*3301 (A33) (human)): 3170 MFI | MFI (HLA-B*0801 (B8) (human)): < 500 MFI | MFI (HLA-B*1301 (B13) (human)): < 500 MFI | MFI (HLA-B*1513 (B77) (human)): < 500 MFI | MFI (HLA-B*1516 (B63) (human)): 1840 MFI | MFI (HLA-B*2708 (B27) (human)): 2430 MFI | % inhibition (HLA-B*3901 (B39) (human)): 16% | MFI (HLA-B*3901 (B39) (human)): 1480 MFI | % inhibition (HLA-B*4801 (B48) (human)): 16% | MFI (HLA-B*5102 (B51) (human)): 2520 MFI | MFI (HLA-B*5703 (B57) (human)): 917 MFI | % inhibition (HLA-B*5901 (B59) (human)): 8% | MFI (HLA-B*5901 (B59) (human)): 848 MFI | MFI (HLA-Cw*0304 (human)): < 500 MFI | MFI [9]: < 500 MFI | MFI [10]: < 500 MFI | MFI [11]: < 500 MFI | MFI [12]: < 500 MFI | MFI [13]: < 500 MFI | MFI [14]: < 500 MFI
Substance: murine monoclonal antibody MAb MEM-E/02
